Blank lines part the entries; values can stand above or below the substance they belong to.
What was measured:
CD74 (human) = CD74 (human) (UniProt P04233); assay: cell-based or functional assay
CD20 (human) = CD20 (human) (UniProt P11836); assay: cell-based or functional assay
Sequence of CD20 (human) (P11836 whole entry): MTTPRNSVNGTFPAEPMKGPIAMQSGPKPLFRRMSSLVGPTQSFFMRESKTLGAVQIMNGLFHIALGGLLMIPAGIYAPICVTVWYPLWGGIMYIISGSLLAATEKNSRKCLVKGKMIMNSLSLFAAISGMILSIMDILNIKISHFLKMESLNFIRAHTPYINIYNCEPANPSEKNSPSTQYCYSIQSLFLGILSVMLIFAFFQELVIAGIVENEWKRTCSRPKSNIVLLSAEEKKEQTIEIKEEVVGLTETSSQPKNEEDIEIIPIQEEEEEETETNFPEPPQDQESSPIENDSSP

Sequence of CD74 (human) (P04233 whole entry): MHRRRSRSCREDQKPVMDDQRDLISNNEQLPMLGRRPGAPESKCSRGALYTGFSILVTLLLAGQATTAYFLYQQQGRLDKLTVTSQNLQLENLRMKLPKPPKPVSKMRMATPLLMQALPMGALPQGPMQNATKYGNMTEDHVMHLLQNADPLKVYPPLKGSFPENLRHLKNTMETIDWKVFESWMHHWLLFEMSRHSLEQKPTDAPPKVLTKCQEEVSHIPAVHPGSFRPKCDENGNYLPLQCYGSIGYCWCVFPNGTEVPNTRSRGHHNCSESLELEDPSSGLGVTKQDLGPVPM

- EC50 (nM), MTS assay, JeKo-1 (CD74 (human)): > 100 nM
Substance: 74-(74)-(74) (antibody)

Substance: 20-Rap
- EC50, in vitro cytotoxicity, Daudi and Ramos (CD20 (human)): 0.1 nM
- EC50, in vitro cytotoxicity, Jeko-1 (CD20 (human)): 20 pM

- EC50 (nM), MTS assay, Daudi (CD20 (human)): 5.8 nM
- EC50 (nM), MTS assay, Granta-519 (CD20 (human)): 0.2 nM
- EC50 (nM), MTS assay, Mino (CD20 (human)): 3.4 nM
- EC50 (nM), MTS assay, Raji (CD20 (human)): 8 nM
Substance: Hex-hA20 (antibody)

Reference: patent US20160243226A1
